From publication PMC7603314, “Broad-complex transcription factor mediates opposing hormonal regulation of two phylogenetically distant arginine kinase genes in Tribolium castaneum” (Communications Biology, 2020)

B1: TcAK1 (Tribolium castaneum) (protein)
chain: MVDAAVLEKLEAGFKKLEASDSKSLLKKYLTRELFDKLKTKKTSFGSTLLDVIQSGLENHDSGIGIYAPDADSYSVFADLFDPIIEDYHGGFKKTDKHPPKDWGDVNAFGNLDPAGEFVVSTRVRCGRSLEGYPFNPCLTEEQYKEMEQKVSSTLSGLEGELKGTFYPLTGMSKEVQQKLIDDHFLFKEGDRFLQAANACRFWPTGRGIFHNDAKTFLVWCNEEDHLRIISMQMGGDLGQVYRRLVTGVNDIEKRLPFSHSDRFGFLTFCPTNLGTTVRASVHIKVPKLAANKAKLDEVAAKFNLQVRGTRGEHTEAEGGVYDISNKRRMGLTEFDAVKEMYDGISEIIKMEKEL
notes: His-tagged in pQE-30-XA, E. coli M15, Ni-NTA; signature CP(S/T)N(I/L)GT at 270-276
B2: TcAK2 (Tribolium castaneum) (protein)
chain: MAKAKCHNCETKCGKGKINPEVLTKLEDGFRRLATSNSQSLLKKYLTQAVFDKLKSKKTGFGSTLLDCIQSGLENPDSNIGVYAPDPEAYTVFAELFDPIIDEYHGGFKKTDQHPASTWGDLKSIGDVDPDQKYVVSTRIRCGRSLAGYPFNPCLTEAQYKEMEKKVSGTLMSLTGELKGKYYPLTGMSKRDQQQLIDDHFLFKEGDRFLQAANACRFWPTGRGIFHNTKKTFLVWLNEEDHLRIISMQKGGNVGEVYQRLVCAVEEIETKLKFSRSDRFGYLTFCPTNLGTTIRASVHIQVPKLAKDKAKLEAVANQFNLQVRGTRGEHSEAEEGVYDISNRRRLGLTEYDAVKEMHDGILKIIEMESCM
notes: His-tagged in pQE-30-XA, E. coli M15, Ni-NTA; signature CP(S/T)N(I/L)GT at 286-292

Substrate: N=C(N)NCCC[C@H](N)C(=O)O
Test: purified protein
Type: biochemical, Tribolium castaneum
Settings: forward reaction, 0.9 mM ATP, 20 mM MgCl2, 50 mM Tris-HCl pH 7.5, 30 °C, L-arginine varied 0.2-10 mM

| Protein | Km [µM] | kcat [s⁻¹] | kcat/Km [M⁻¹ s⁻¹] |
| --- | --- | --- | --- |
| B1 | 1500 ± 20 | 172.7 ± 5.8 | 113000 |
| B2 | 3700 ± 40 | 12.7 ± 0.95 | 3500 |
